Patent US20220041658A1 (PROTAGONIST THERAPEUTICS, published 2022)
Positions of bridges follow the written chain, without caps; N, C: chain ends. Non-standard residues stand in square brackets, D forms with d. Trp(7-Me) = Cc1cccc2c(C[C@H](N)C(=O)O)c[nH]c12; 2Nal = N[C@@H](Cc1ccc2ccccc2c1)C(=O)O; AEF = NCCOc1ccc(C[C@H](N)C(=O)O)cc1; Cit = NC(=O)NCCC[C@H](N)C(=O)O; Pen = CC(C)(S)[C@H](N)C(=O)O; αMeK = C[C@](N)(CCCCN)C(=O)O; Dab = NCC[C@H](N)C(=O)O; Abu = CC[C@H](N)C(=O)O; Aib = CC(C)(N)C(=O)O; βAla = NCCC(=O)O; Sar = CNCC(=O)O

T1: interleukin-23 receptor (IL-23R) (human, UniProt Q5VWK5 24-629)
T1 sequence (looked up): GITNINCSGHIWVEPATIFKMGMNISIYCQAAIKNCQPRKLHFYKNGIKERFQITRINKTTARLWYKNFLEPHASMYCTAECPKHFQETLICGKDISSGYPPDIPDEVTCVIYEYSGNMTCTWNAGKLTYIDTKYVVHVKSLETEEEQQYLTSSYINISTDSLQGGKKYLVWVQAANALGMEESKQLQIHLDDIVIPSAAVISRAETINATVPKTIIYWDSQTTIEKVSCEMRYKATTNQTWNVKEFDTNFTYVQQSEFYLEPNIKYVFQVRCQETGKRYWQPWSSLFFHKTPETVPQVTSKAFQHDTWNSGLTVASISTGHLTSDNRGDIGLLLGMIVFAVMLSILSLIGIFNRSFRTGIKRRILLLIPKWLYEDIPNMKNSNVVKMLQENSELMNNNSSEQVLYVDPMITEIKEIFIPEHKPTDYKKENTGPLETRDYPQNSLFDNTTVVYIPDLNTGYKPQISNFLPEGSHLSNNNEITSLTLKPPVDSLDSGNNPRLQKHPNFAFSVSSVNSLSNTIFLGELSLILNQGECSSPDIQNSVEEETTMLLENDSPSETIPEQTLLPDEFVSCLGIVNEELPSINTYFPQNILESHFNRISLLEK


Biological target: T1, interleukin-23 receptor (IL-23R)
Assay: cell-based or functional assay

Binder	pStat3 HTRF IC50
XQTXQXXXXKNX (Ac-[Pen]-Q-T-[W(7-Me)]-Q-[Pen]-Phe[4-(2-aminoethoxy)]-[2-Nal]-[a-MeLys]-[Lys(Ac)]-N-[bA]-NH2; Pen-Pen disulfide) [Peptide of SEQ ID NO: 237]	3.39 nM
XNTXQXXXXGPX (Ac-[Pen]-NT-[W(7-Me)]-Q-[Pen]-Phe[4-(2-aminoethoxy)]-[2-Nal]-[a-MeLeu]-G-P-[bA]-NH2; Pen-Pen disulfide) [Peptide of SEQ ID NO: 219]	93.7 nM
XNTXQXXXXKPX (Ac-[Pen]-NT-[W(7-Me)]-Q-[Pen]-Phe[4-(2-aminoethoxy)]-[2-Nal]-[a-MeLeu]-[Lys(Ac)]-P-[bA]-NH2; Pen-Pen disulfide) [Peptide of SEQ ID NO: 211]	178 nM
XNTXQXXXXKSX (Ac-[Pen]-NT-[W(7-Me)]-Q-[Pen]-Phe[4-(2-aminoethoxy)]-[2-Nal]-[a-MeLeu]-[Lys(Ac)]-[(D)Ser]-[bA]-NH2; Pen-Pen disulfide) [Peptide of SEQ ID NO: 222]	5.02 nM
Ac-[Pen]NT[Trp(7-Me)][Aib][Pen][AEF][2Nal][αMeK]K(Ac)N[βAla]-NH2 (disulfide 1-6; SMILES CC(=O)NCCCC[C@H](NC(=O)[C@](C)(CCCCN)NC(=O)[C@H](Cc1ccc2ccccc2c1)NC(=O)[C@H](Cc1ccc(OCCN)cc1)NC(=O)[C@H]1NC(=O)C(C)(C)NC(=O)[C@H](Cc2c[nH]c3c(C)cccc23)NC(=O)[C@H]([C@@H](C)O)NC(=O)[C@H](CC(N)=O)NC(=O)[C@@H](NC(C)=O)C(C)(C)SSC1(C)C)C(=O)N[C@@H](CC(N)=O)C(=O)NCCC(N)=O) [Peptide of SEQ ID NO: 241]	12.5 nM
XNTXQXXXXKNX (Ac-[Pen]-NT-[W(2,5,7-tritBu)]-Q-[Pen]-Phe[4-(2-aminoethoxy)]-[2-Nal]-[a-MeLys]-[Lys(Ac)]-N-[bA]-NH2; Pen-Pen disulfide) [Peptide of SEQ ID NO: 233]	> 1 µM
XNTXKXXXXKNR (Ac-[Pen]-NT-[W(7-Me)]-[Lys(Ac)]-[Pen]-Phe[4-(2-aminoethoxy)]-[2-Nal]-[a-MeLys]-[Lys(Ac)]-N-R-NH2; Pen-Pen disulfide) [Peptide of SEQ ID NO: 243]	1.87 nM
Ac-[Pen][Aib]T[Trp(7-Me)]Q[Pen][AEF][2Nal][αMeK]K(Ac)N[βAla]-NH2 (disulfide 1-6; SMILES CC(=O)NCCCC[C@H](NC(=O)[C@](C)(CCCCN)NC(=O)[C@H](Cc1ccc2ccccc2c1)NC(=O)[C@H](Cc1ccc(OCCN)cc1)NC(=O)[C@H]1NC(=O)[C@H](CCC(N)=O)NC(=O)[C@H](Cc2c[nH]c3c(C)cccc23)NC(=O)[C@H]([C@@H](C)O)NC(=O)C(C)(C)NC(=O)[C@@H](NC(C)=O)C(C)(C)SSC1(C)C)C(=O)N[C@@H](CC(N)=O)C(=O)NCCC(N)=O) [Peptide of SEQ ID NO: 240]	17.7 nM
XQTXQCXXXENX (Ac-Abu-Q-T-[W(7-Me)]-Q-C-Phe[4-(2-aminoethoxy)]-[2-Nal]-[THP]-E-N-[bA]-NH2; Abu-Cys thioether) [Peptide of SEQ ID NO: 204]	1.75 nM

Further lines, results first:

pStat3 HTRF IC50	Binder
5.33 nM	Ac-[dR][Abu]QT[Trp(7-Me)]K(Ac)C[AEF][2Nal][αMeK]K(Ac)N[dK][Sar]-NH2 (thioether 2-7 (inferred)) [Peptide of SEQ ID NO: 323]
0.714 nM	XNTXXXXXXKNL (Ac-[Pen]-N-T-[W(7-Me)]-[Lys(trifluoropropionic)]-[Pen]-Phe[4-(2-aminoethoxy)]-[2-Nal]-[a-MeLys]-[Lys(Ac)]-N-[(D)Leu]-NH2; Pen-Pen disulfide) [Peptide of SEQ ID NO: 319]
11.3 nM	XNTXKXXXXKNK (Ac-[Pen]-N-T-[W(2-Me)]-[Lys(Ac)]-[Pen]-Phe[4-(2-aminoethoxy)]-[2-Nal]-[a-MeLys]-[Lys(Ac)]-N-[(D)Lys]-NH2; Pen-Pen disulfide) [Peptide of SEQ ID NO: 351]
0.724 nM	Ac-[Pen]NT[Trp(7-Me)][Cit][Pen][AEF][2Nal][αMeK]K(Ac)N[Aib][dK]-NH2 (disulfide 1-6 (inferred)) [Peptide of SEQ ID NO: 344]
0.567 nM	Ac-[Pen][Dab](Ac)T[Trp(7-Me)]K(Ac)[Pen][AEF][2Nal][αMeK]K(Ac)N[dL]-NH2 (disulfide 1-6 (inferred)) [Peptide of SEQ ID NO: 335]
1.04 nM	XNTXXXXXXKNL (Ac-[Pen]-N-T-[W(7-Me)]-[Lys(bAla)]-[Pen]-Phe[4-(2-aminoethoxy)]-[2-Nal]-[a-MeLys]-[Lys(Ac)]-N-[(D)Leu]-NH2; Pen-Pen disulfide) [Peptide of SEQ ID NO: 321]
18.4 nM	Ac-[dR][Abu]QT[Trp(7-Me)]K(Ac)C[AEF][2Nal][αMeK]K(Ac)N-NH2 (thioether 2-7 (inferred)) [Peptide of SEQ ID NO: 326]
0.648 nM	XNTXXXXXXKNL (Ac-[Pen]-N-T-[W(7-Me)]-[Lys(Aib)]-[Pen]-Phe[4-(2-aminoethoxy)]-[2-Nal]-[a-MeLys]-[Lys(Ac)]-N-[(D)Leu]-NH2; Pen-Pen disulfide) [Peptide of SEQ ID NO: 322]
41.8 nM	XNTXKXXXXKNL (Ac-[Pen]-[(D)Asn]-T-[W(7-Me)]-[Lys(Ac)]-[Pen]-Phe[4-(2-aminoethoxy)]-[2-Nal]-[a-MeLys]-[Lys(Ac)]-N-[(D)Leu]-NH2; Pen-Pen disulfide) [Peptide of SEQ ID NO: 338]
1.9 nM	XNTXXXXXXKNL (not fully specified; Ac-[Pen]-N-T-[W(7-Me)]-[Lys(benzyl)]-[Pen]-Phe[4-(2-aminoethoxy)]-[2-Nal]-[a-MeLys]-[Lys(Ac)]-N-[(D)Leu]-NH2; Pen-Pen disulfide) [Peptide of SEQ ID NO: 318]
1.43 nM	Ac-[Pen]NT[Trp(7-Me)][Cit][Pen][AEF][2Nal][αMeK]K(Ac)N[Aib]R-NH2 (disulfide 1-6 (inferred)) [Peptide of SEQ ID NO: 343]
1.82 nM	XNTXKXXXXKNV (Ac-[Pen]-NT-[W(7-Me)]-[Lys(Ac)]-[Pen]-Phe[4-(2-aminoethoxy)]-[2-Nal]-[a-MeLys]-[Lys(Ac)]-N-V-NH2; Pen-Pen disulfide) [Peptide of SEQ ID NO: 250]
0.784 nM	Ac-[Pen]NT[Trp(7-Me)][Cit][Pen][AEF][2Nal][αMeK]K(Ac)N[Aib][dF]-NH2 (disulfide 1-6 (inferred)) [Peptide of SEQ ID NO: 346]
